Substrate: O=C(O)c1ccc(O)c(O)c1
Assay: purified protein
Format: biochemical, Comamonas testosteroni
Conditions: pH 7.5, room temperature, anaerobically purified enzyme, dithionite-treated, O2 co-substrate

B1: PmdAB (protocatechuate 4,5-dioxygenase) (Comamonas testosteroni) (protein)
chain 1: MARITASVFTSHVPAIGAAMDMGKTQEAYWAPLFKGYDFSRQWMKDNKPDVIFLVYNDHATAFSLDCIPTFAIGTAAEFQPADEGWGPRPVPKVVGHPDLASHIAQSVIQQDFDLTIVNKMDVDHGLTVPLSLMCGEQDPKTGSWPCPVIPFAVNVVQYPVPTGQRCFNLGRAIRKAVESYDQDINVHIWGTGGMSHQLQGARAGLINKEWDNQFLDLLVENPHGLAQMPHIDYVREAGSEGIELVMWLIARGAMSDVDGPAPLPKVAHRFYHVPASNTAVGHLILENQ
chain 2: MALEKPYLDVPGTIIFDAEQSRKGYWLNQFCMSLMKAENRERFRADERAYLDEWAMTEEQKQAVLARDLNWCMRTGGNIYFLAKIGATDGKSFQQMAGSMTGMTEEEYRAMMMGGGRSAEGNRYVGEDGDAQAHHQPQGSAGNQNKEGN
notes: full-length, codon-optimized, N-terminal His6-PmdA co-expressed with PmdB in E. coli BL21(DE3); purified anaerobically; alpha2beta2 heterotetramer, nonheme Fe(II)
B1 showed a Km of 33.00 ± 12.0 µM, a kcat of 107 ± 7.5 s⁻¹ and a kcat/Km of 3.3e+06 M⁻¹ s⁻¹.

From paper PMC11489326, “Characterization of lignin-degrading enzyme PmdC, which catalyzes a key step in the synthesis of polymer precursor 2-pyrone-4,6-dicarboxylic acid” (The Journal of Biological Chemistry, 2024)
